Measured values from article PMC2490753.

Molecular target: YacG (E. coli) (UniProt P0A8H8)
Test: SPR

UniProt P0A8H8, sequence (P0A8H8 whole entry): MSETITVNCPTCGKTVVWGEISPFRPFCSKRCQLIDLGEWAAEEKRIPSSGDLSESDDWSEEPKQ

- response above nonspecific control at 1 uM GyrB: 92 RU
Substance: GyrB subunit of E. coli DNA gyrase (from UniProt P0AES6 1-804) (natural protein)
